Experimental data: patent US20190055314A1 (ADAGENE, published 2019)

T1: full-length mouse CD137 on the cell surface (mouse, UniProt P20334 24-178)
T1 sequence: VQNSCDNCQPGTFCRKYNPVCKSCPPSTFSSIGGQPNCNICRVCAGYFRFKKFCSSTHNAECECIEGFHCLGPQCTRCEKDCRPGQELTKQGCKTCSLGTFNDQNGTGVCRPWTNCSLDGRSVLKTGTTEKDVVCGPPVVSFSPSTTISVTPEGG

T2: Hu_CRD3 (human, limits assumed)
T2 construct: also called human CD137 CRD3
T2 chain: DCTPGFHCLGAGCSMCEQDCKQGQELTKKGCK

T3: Hu_CRD4 (human, UniProt Q07011 119-159, limits assumed)
T3 construct: also called human CD137 CRD4
T3 chain: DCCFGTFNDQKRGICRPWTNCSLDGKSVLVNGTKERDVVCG

T4: monkey CD137 protein (Biacore) (cynomolgus monkey, UniProt Q07011 24-179 (human entry), limits assumed)
T4 construct: Construct used as SPR analyte not described; also called Cyno CD137
T4 chain: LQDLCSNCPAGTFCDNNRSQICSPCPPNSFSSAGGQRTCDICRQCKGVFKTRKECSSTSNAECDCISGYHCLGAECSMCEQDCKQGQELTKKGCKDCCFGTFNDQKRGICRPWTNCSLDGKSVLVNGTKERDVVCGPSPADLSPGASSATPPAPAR

T5: Hu_CRD2 (human, UniProt Q07011 46-86, limits assumed)
T5 construct: also called human CD137 CRD2
T5 chain: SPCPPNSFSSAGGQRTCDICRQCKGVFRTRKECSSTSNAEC

T6: GITR overexpressed on HEK293F cells (UniProt Q9Y5U5 26-241, limits assumed)
T6 construct: whole, on cells
T6 sequence (looked up): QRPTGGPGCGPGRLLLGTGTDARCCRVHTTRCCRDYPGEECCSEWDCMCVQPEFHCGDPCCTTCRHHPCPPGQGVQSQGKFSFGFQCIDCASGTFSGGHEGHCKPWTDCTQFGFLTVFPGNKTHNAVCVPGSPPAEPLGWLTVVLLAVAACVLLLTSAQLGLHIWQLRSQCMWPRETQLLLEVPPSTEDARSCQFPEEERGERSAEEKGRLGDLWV

T7: CD27 overexpressed on HEK293F cells (UniProt P26842 20-260, limits assumed)
T7 construct: whole, on cells
T7 sequence (looked up): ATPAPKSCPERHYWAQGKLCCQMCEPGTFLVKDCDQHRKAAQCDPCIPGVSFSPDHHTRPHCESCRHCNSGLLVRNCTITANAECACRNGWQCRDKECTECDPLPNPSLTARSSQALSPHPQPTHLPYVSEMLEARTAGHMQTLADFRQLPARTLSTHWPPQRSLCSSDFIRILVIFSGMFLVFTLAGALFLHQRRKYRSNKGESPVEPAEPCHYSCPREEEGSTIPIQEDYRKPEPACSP

T8: OX40 overexpressed on HEK293F cells (UniProt P43489 29-277, limits assumed)
T8 construct: whole, on cells
T8 sequence (looked up): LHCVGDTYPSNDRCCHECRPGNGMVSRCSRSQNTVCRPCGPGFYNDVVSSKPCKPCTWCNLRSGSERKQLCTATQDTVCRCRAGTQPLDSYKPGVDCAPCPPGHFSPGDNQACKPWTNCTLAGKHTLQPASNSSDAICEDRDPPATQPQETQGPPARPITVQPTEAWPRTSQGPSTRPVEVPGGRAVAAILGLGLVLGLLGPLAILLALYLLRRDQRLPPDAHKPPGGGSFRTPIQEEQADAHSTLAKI


Tests used:
[1] = biological target: T1, full-length mouse CD137 on the cell …; assay: flow cytometry, HEK293F cells expressing CD137 or mutant [Cont.]
[2] = biological target: T9, full-length human CD137 on the cell surface (human, UniProt Q07011 18-255); assay: as above
T9 construct: also called Human WT

Hu_CRD3 = biological target: T2, Hu_CRD3; assay: flow cytometry, yeast display [Cont.]
Hu_CRD2-CRD3 = biological target: T10, Hu_CRD2-CRD3 (human, UniProt Q07011 46-118, limits assumed); assay: flow cytometry, yeast display [Cont.]
T10 construct: also called two CRD units (CRD2-CRD3) of human CD137

Hu_CRD4 = biological target: T3, Hu_CRD4; assay: flow cytometry, yeast display [Cont.]
Hu_CRD1-CRD2 = biological target: T11, Hu_CRD1-CRD2 (human, UniProt Q07011 24-86, limits assumed); assay: flow cytometry, yeast display [Cont.]
T11 construct: also called two CRD units (CRD1-CRD2) of human CD137

[3] = biological target: T4, monkey CD137 protein (Biacore); assay: SPR Biacore, IgG captured
[4] = biological target: T12, CD137-hisFc fusion protein (Sino Biological Cat 10041-H03H) (human, UniProt Q07011 24-186); assay: competition ELISA, human CD137-Fc-His coated, biotinylated CD137L as blocked ligand, neutravidin-HRP
T12 construct: Bought; also called recombinant human CD137 (fused with human Fc and His tag); not shown: His tag and human Fc

[5] = biological target: T1, full-length mouse CD137 on the cell …; assay: flow cytometry, yeast display
Hu_CRD2 = biological target: T5, Hu_CRD2; assay: flow cytometry, yeast display
[6] = biological target: T9, full-length human CD137 on the cell …; assay: flow cytometry, yeast display
[7] = biological target: T13, CD40 overexpressed on HEK293F cells (UniProt P25942 21-277, limits assumed); assay: flow cytometry, HEK293F cells expressing the receptor
T13 construct: whole, on cells
T13 sequence (P25942 21-277 limits assumed): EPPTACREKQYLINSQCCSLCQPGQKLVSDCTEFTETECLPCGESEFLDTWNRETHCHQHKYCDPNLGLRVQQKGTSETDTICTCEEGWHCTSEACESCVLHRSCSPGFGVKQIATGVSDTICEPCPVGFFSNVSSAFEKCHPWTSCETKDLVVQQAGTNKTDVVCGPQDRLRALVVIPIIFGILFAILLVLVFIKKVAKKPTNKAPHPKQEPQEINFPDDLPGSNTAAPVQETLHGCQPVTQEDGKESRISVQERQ

[8] = biological target: T6, GITR overexpressed on HEK293F cells; assay: as above
[9] = biological target: T7, CD27 overexpressed on HEK293F cells; assay: as above
[10] = biological target: T8, OX40 overexpressed on HEK293F cells; assay: as above

% in upper right quadrant [1] [%]	% in upper right quadrant [2] [%]	% in upper right quadrant (Hu_CRD3) [%]	Mean (Hu_CRD3)	% in upper right quadrant (Hu_CRD2-CRD3) [%]	Mean (Hu_CRD2-CRD3)	% in upper right quadrant (Hu_CRD4) [%]	Mean (Hu_CRD4)	% in upper right quadrant (Hu_CRD1-CRD2) [%]	Mean (Hu_CRD1-CRD2)	Kd [3] [nM]	IC50 (read off the curve) [4] [nM]	% in upper right quadrant [5] [%]	Mean [5]	% in upper right quadrant (Hu_CRD2) [%]	Mean (Hu_CRD2)	% in upper right quadrant [6] [%]	Mean [6]	Binder	also measured
0.041	34.7	0.25	6200	0.15	7460	0.17	16100	0.31	12000	23.1	~100	0.44	9890	0.2	6280	25.9	58600	AG10059 (antibody, human IgG4 S228P, kappa, V domains shown) VH: EVQLVESGGGLVQPGGSLRLSCAASGYSITSGHYWAWIRQAPGKGLEWVSSISGYGSTTYYADSVKGRFTISRDNSKNTLYLQLNSLRAEDTAVYYCARGGSDAVLGDWFAYWGQGTLVTVSS VL: DIQLTQSPSSLSASVGDRVTITCRASQGIGSFLAWYQQKPGKAPKLLIYDASNLETGVPSRFSGSGSGTDFTLTISSLQPEDFATYYCQQGYYLWTFGQGTKVEIKR	–
31.1	27.3	0.15	10400	0.11	14600	0.15	16100	0.18	3680	9.3	~40	41.1	12600	0.24	13200	30.7	64700	AG10058 (antibody, human IgG4 S228P, kappa, V domains shown) VH: EVQLVESGGGLVQPGGSLRLSCAASGFSLSTSGVGVGWIRQAPGKGLEWLALIDWDDDKYYSPSLKSRLTISRDNSKNTLYLQLNSLRAEDTAVYYCARGGSDTVLGDWFAYWGQGTLVTVSS VL: DIQLTQSPSSLSASVGDRVTITCRASQSVSPYLAWYQQKPGKAPKLLIYDASSLESGVPSRFSGSGSGTDFTLTISSLQPEDFATYYCQQGYSLWTFGQGTKVEIKR	binding result [7]: no binding (tested: 100 nM (text paragraph 226)); binding result [8]: no binding (tested: 100 nM (text paragraph 226)); binding result [9]: no binding (tested: 100 nM (text paragraph 226)); binding result [10]: no binding (tested: 100 nM (text paragraph 226))
